According to patent publication US20240352445A1 (published 2024):
Like-named read-outs stand apart in the source and are kept apart here.

Experiments:
[1] = molecular target: SARS-CoV-2 spike protein trimer, Epsilon (B.1.429) variant (SARS-CoV-2, UniProt P0DTC2 16-1213)
[2] = molecular target: SARS-CoV-2 spike protein trimer, Gamma (P.1) variant (SARS-CoV-2, UniProt P0DTC2 16-1213)
[3] = molecular target: SARS-CoV-2 spike protein trimer, Alpha (B.1.1.7) variant (SARS-CoV-2, UniProt P0DTC2 16-1213)
[4] = molecular target: T1, SARS-CoV-2 spike protein trimer, Beta (B.1.351) variant (SARS-CoV-2, UniProt P0DTC2 16-1213)
[5] = molecular target: SARS-CoV-2 spike protein trimer, Kappa (B.1.617.1) variant (SARS-CoV-2, UniProt P0DTC2 16-1213)
[6] = molecular target: T1, SARS-CoV-2 spike protein trimer, Beta …; experiment: BLI
[7] = molecular target: T1, SARS-CoV-2 spike protein trimer, Beta …; experiment: BLI; remark: listed apart in the source
[8] = molecular target: T2, SARS-CoV-2 spike protein trimer, Omicron (B.1.1.529) variant (SARS-CoV-2, UniProt P0DTC2 16-1213); experiment: flow
[9] = molecular target: T2, SARS-CoV-2 spike protein trimer, …; experiment: BLI
[10] = molecular target: T2, SARS-CoV-2 spike protein trimer, …; experiment: BLI; remark: listed apart in the source
[11] = molecular target: T2, SARS-CoV-2 spike protein trimer, …; experiment: BLI; remark: listed apart in the source
[12] = molecular target: SARS-CoV-2 spike protein trimer, Omicron (BA.2) variant (SARS-CoV-2, UniProt P0DTC2 16-1213); experiment: ELISA
[13] = molecular target: SARS-CoV-2 spike protein trimer, Delta (B.1.617.2) variant (SARS-CoV-2, UniProt P0DTC2 16-1213); experiment: ELISA
[14] = molecular target: T2, SARS-CoV-2 spike protein trimer, …; experiment: ELISA

Row | Binder | IC50 [1] | IC50 [2] | IC50 [3] | IC50 [4] | IC50 [5] | Kd [6] | Kd [7] | IC50 [8] | Kd [9] | Kd [10] | Kd [11] | IC50 [12] | IC50 [13] | IC50 [14]
1 | rabbit monoclonal antibody C-A11 (antibody, V domains shown) VH: QSLEESGGRLVTPGTPLTLTCTVSGFSLSTYAMSWVRQAPGKGLEWIGVIASNADTYYASWAKGRITISKTSTTVDLKITSPTTEDTATYFCARHPGSAGYGYAVYYAMDPWGPGTLVTVSS VL: AIEMTQSPSSLAASVGDTVTITCKASEDIRYGLNWYQQKLGIAPKLLIYGANTLEAGVPSRFSGSGSETDYTLTISSVQAEDAGIYYCQQGYSTPLTFGAGTKVEIK | 0.00314 µg/mL | 0.0548 µg/mL | 0.0495 µg/mL | 0.0218 µg/mL | 0.0141 µg/mL | 0.0404 nM | 0.0404 nM | > 0.5 µg/mL | – | – | – | – | – | –
2 | LxA3-E4 (antibody, V domains shown) VH: EVQLVESGGGLVQPGGSLRLSCEASGFTFPNQAMTWVRQAPGKGLEWIGVIASNADTYYASWAKGRFTISRDNSKNTLYLQMNSLRAEDTAVYYCARHPGSAGYGYGHYYAMDPWGQGTLVTVSS VL: DIQMTQSPSSLSASVGDRVTITCQASENIRYAINWYQQKPGKAPKLLIYGATYRDEGVPSRFSGSGSGTDYTLTISSLQPEDFATYYCQQGYVVPNSFGGGTKVEIK | – | – | – | – | – | – | – | – | < 0.001 nM | – | – | – | – | –
3 | humanized antibody hN2F (antibody, V domains shown) VH: EVQLVESGGGLVQPGGSLRLSCTVSGFSLSTYAMSWVRQAPGKGLEWIGVIASNADTYYASWAKGRFTISRDNSKNTLYLQMNSLRAEDTAVYYCARHPGSAGYGYAVYYAMDPWGQGTLVTVSS VL: DIQMTQSPSSLSASVGDRVTITCKASEDIRYGLNWYQQKPGKAPKLLIYGANTLEAGVPSRFSGSGSGTDFTLTISSLQPEDFATYYCQQGYSTPLTFGGGTKVEIK | 0.0101 µg/mL | 2.18 µg/mL | 0.0561 µg/mL | 1.29 µg/mL | 0.0589 µg/mL | – | – | > 0.5 µg/mL | – | – | – | – | – | –
4 | humanized antibody hN2Y (antibody, V domains shown) VH: EVQLVESGGGLVQPGGSLRLSCTVSGFSLSTYAMSWVRQAPGKGLEWIGVIASNADTYYASWAKGRFTISRDNSKNTLYLQMNSLRAEDTAVYYCARHPGSAGYGYAVYYAMDPWGQGTLVTVSS VL: DIQMTQSPSSLSASVGDRVTITCKASEDIRYGLNWYQQKPGKAPKLLIYGANTLEAGVPSRFSGSGSGTDYTLTISSLQPEDFATYYCQQGYSTPLTFGGGTKVEIK | 0.0184 µg/mL | 0.0588 µg/mL | 0.0704 µg/mL | 0.0347 µg/mL | 0.0117 µg/mL | 0.193 nM | 0.193 nM | – | – | 0.123 nM | 0.123 nM | 0.159 µg/mL | 0.00419 µg/mL | 0.44 µg/mL
5 | LxA3-B11 (antibody, V domains shown) VH: EVQLVESGGGLVQPGGSLRLSCEASGFTFPNQAMTWVRQAPGKGLEWIGVIASNADTYYASWAKGRFTISRDNSKNTLYLQMNSLRAEDTAVYYCARHPGSAGYGYGHYYAMDPWGQGTLVTVSS VL: DIQMTQSPSSLSASVGDRVTITCLASEQAHYAINWYQQKPGKAPKLLIYGTSLLAEGVPSRFSGSGSGTDFTLTISSLQPEDFATYYCQQGYIVPISFGGGTKVEIK | – | – | – | – | – | – | – | – | 0.0449 nM | – | – | – | – | –
